The target in experiment [1] is T1, human transglutaminase type 2 (TG2) (human, UniProt P21980 1-687).
T1 construct: Recombinant full-length human TG2 (Zedira; cat; T002 in the Biacore work); Also used here for the endogenous TG2 of HepG2 lysate and HK-2 cells; also called hTG2; rhTG2
T1 sequence: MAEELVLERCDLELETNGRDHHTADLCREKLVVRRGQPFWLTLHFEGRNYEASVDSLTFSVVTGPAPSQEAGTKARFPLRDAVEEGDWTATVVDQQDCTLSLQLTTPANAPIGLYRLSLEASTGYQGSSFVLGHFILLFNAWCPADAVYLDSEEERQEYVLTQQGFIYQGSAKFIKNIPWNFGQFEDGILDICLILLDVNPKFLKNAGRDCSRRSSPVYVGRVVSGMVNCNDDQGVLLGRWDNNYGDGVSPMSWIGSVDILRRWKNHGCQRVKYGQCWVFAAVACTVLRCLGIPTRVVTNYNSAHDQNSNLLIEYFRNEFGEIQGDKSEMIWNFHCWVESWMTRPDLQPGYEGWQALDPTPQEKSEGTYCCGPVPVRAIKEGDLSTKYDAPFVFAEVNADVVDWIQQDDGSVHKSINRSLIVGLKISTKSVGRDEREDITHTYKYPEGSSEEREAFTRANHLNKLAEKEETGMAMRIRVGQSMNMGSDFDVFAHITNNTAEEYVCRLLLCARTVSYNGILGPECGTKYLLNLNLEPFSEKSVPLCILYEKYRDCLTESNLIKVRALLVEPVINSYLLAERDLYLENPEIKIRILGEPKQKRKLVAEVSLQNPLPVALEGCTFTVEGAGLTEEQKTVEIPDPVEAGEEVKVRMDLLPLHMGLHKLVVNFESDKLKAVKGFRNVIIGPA
The experiment is described as follows: SPR (Biacore T200), antibody captured on anti-human IgG1 Fc chip, TG2 injected; +Ca2+. As to the method: (§1) Recombinant cynomolgus monkey TG2 was obtained from Trenzyme. Surface plasmon resonance (SPR) was measured on a Biacore T200 instrument (GE Healthcare). CM5 chips (GE Healthcare cat. no.: BR-1006-68) were coated with monoclonal mouse anti-human IgG1 (Fc) (MAH) antibody (GE Healthcare cat. no.: BR-1008-39) by amine-coupling as described in the manufacturers instructions. HBS-EP+ buffer (0.01 M HEPES, 0.15 M NaCl, 3 mM EDTA, 0.05% v/v Surfactant P20) and HBS-P+ buffer (0.01 M HEPES, 0.15 M NaCl, 0.05% Surfactant P20) were purchased from GE Healthcare as 10× stocks (cat. nos.: BR-1006-69 and BR-1006-71). Calcium Chloride solution was obtained from Sigma Aldrich (cat. no.:21115).
(§2) The method employed to determine the affinity of the anti-TG2 antibodies involved the capture of the chimeric or humanised antibodies on a MAH coated CM5 chip, followed by the injection of a series of TG2 samples in running buffer. The running buffer was 1×HBS-P+ containing 1 mM CaCl_2, or 1×HBS-EP+ for calcium-free experiments. Antibody capture was carried out for a contact time of 120 seconds at a flow rate of 10 μl/min resulting in the capture of approximately 40-80 RU. TG2 was injected over the immobilised antibody at concentrations ranging from 25 nM to 400 nM with a contact time up to 600 seconds at a flow rate of 30 μl/min. Dissociation of TG2 was typically measured for up to 5400 seconds (1.5 hours). Regeneration of the chip was then performed using 3 M MgCl_2, for a contact time of 60 seconds at a flow rate of […], followed by a 300 s stabilisation period before the next sample. For each of human and cynomolgus monkey TG2, at least 5 injections at a variety of concentrations were performed in at least two separate experiments.
(§3) Kinetic data were exported from the Biacore T200 Evaluation Software and analysed using GraphPad Prism, where the association phases and dissociation phases were analysed separately using a one phase association model and one-phase exponential decay model respectively. Association rates ($kon$) were calculated for each curve individually, and dissociation rates ($koff$) values from the long dissociation phase data collected. Where $koff$ values were calculated to be $<1\times10^-5$ s^-1, values were set at 1×10^-5 for analysis, as rates slower than this could not be estimated accurately.
Background: In SPR one partner is held on a chip, and binding of the other changes the refractive index at the surface.

Experiment [2] deals with T2, cynomolgus monkey TG2 (cynomolgus monkey, UniProt A0A2K5VXI8 1-687).
T2 construct: Bought recombinant protein; also called cynomogulus monkey TG2; cyano TG2
T2 sequence: T1 sequence with E4D, Q157R, N177S, H413S, I421T, Y528H, V542I
The experiment is described as above. As to the method: as §1, §2, §3

The target of experiment [3] is T1, human transglutaminase type 2 (TG2). The experiment in a line: cell-based or functional assay.

Data on 5 molecules can be found in patent publication US10005846 (LIFEARC, dated 2018).

Substitutions are numbered along the chain they refer to.

B1: cDH001 chimeric antibody (murine DH2 variable regions) (antibody, human IgG1, V domains shown)
VH: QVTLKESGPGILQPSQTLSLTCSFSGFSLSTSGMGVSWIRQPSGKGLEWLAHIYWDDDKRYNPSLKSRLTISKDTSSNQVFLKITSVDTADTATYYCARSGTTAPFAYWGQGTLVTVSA
VL: QIVLTQSPAIMSASPGEKVTMTCSASSSVSYMYWYQQKPGSSPRLLIYDTSNLASGVPVRFSGSGSGTSYSLTISRMEAEDAATFYCQQWSSSPLTFGAGTKLELK
By Kd is commonly meant the free concentration of one partner at which half of the binding sites on the other are occupied at equilibrium, for simple one-to-one binding. Broadly, the koff is a measure of how fast the partners let go of each other. A word on the kon: it is a measure of how fast the partners come together. In experiment [1], B1 displayed a Kd of 0.64 nM, a koff of 1.8e-05 s⁻¹ and a kon of 28000 M⁻¹ s⁻¹. In experiment [2], this molecule yielded a Kd below 0.7 nM, a koff below 1e-05 s⁻¹ and a kon of 15000 M⁻¹ s⁻¹.

B2: cDD9001 chimeric antibody (murine DD9 variable regions) (antibody, human IgG1, V domains shown)
VH: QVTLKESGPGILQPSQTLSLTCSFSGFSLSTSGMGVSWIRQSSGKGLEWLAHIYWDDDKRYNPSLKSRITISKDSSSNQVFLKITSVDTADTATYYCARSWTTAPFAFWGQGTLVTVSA
VL: B1 VL with S30D, E78G, F85Y, S91N
In experiment [1], B2 showed a Kd of 0.43 nM, a koff of 1.3e-05 s⁻¹ and a kon of 30000 M⁻¹ s⁻¹. Further, in experiment [2], binding was characterised by a dissociation constant (Kd) of 0.52 nM, the off-rate (koff) came to 1.6e-05 s⁻¹ and the kon came to 31000 M⁻¹ s⁻¹.

B3: AB1 murine monoclonal antibody (antibody, V domains shown)
VH: EVQLVESGGGLVKPGGSLKLSCAASGFTLSSSAMSWVRQTPDRRLEWVATISVGGGKTYYPDSVKGRFTISRDNAKNTLYLQMNSLRSEDTAMYYCAKLISLYWGQGTTLTVSS
VL: DIKMTQSPSSMYASLGERVTITCKASQDINSYLTWFQQKPGKSPKTLIYRTNRLFDGVPSRFSGSGSGQDFFLTISSLEYEDMGIYYCLQYDDFPYTFGGGTKLEIK
notes: Mouse hybridoma IgG; heavy chain amplified with constant region primer MHCG1, kappa light chain; also called mAB003
As to B3, the “half-maximal concentration of enzymatic inhibition, headed EC50 nM on the sheet, IC50 in the legend [panel A]” value in experiment [3] came to 9.5 nM.

B4: BB7 murine monoclonal antibody (antibody, V domains shown)
VH: AVQLVESGGGLVKPGGSLKLSCAASGIIFSSSAMSWVRQTPEKRLEWVATISSGGRSTYYPDSVKGRFTVSRDSAKNTLYLQMDSLRSEDTAIYYCAKLISPYWGQGTTLTVSS
VL: B3 VL with D1A, T20I, R50L, F55M, D70E, F72L, S77G, Y80H, D92V
notes: Mouse hybridoma IgG; heavy chain amplified with primer MHCG1, kappa light chain; also called mBB001
For the molecule B4, the “half-maximal concentration of enzymatic inhibition, headed EC50 nM on the sheet, IC50 in the legend [panel B]” value in experiment [3] was 0.752 nM.

B5: cBB001 chimeric antibody (murine BB7 variable regions) (antibody, human IgG1, V domains shown)
VH: B4 VH
VL: B3 VL with D1A, T20I, R50L, F55M, D70E, F72L, S77G, Y80H, D92V
notes: also called chimeric BB7
In experiment [1], B5 displayed a Kd below 0.05 nM, a koff below 1e-05 s⁻¹ and a kon of 210000 M⁻¹ s⁻¹. In experiment [2], this molecule displayed a Kd below 0.03 nM, a dissociation rate constant (koff) below 1e-05 s⁻¹ and a kon of 290000 M⁻¹ s⁻¹.
